# Data: the DeepSol protein solubility set
# Assay: soluble on expression in E. coli; label from the status in PepcDB or PDB records
row,Sequence,soluble on expression in E. coli
1,MAIQTSNLGYPRIGLQREWKKTLEAFWSNKINEEQFLTTMKEIRLQHVKVQQEKGIELIPIGDFTYYDHVLDTAYMLGFIPSRFSEFTSYLDVYFAMARGSKDHVASEMTKWFNTNYHYIVPEYEEGLQISLKDNRPLRLYEEAKQELGVDGKPVILGPYTFLKLAKGYTQEQFATILKQLVAPYVQLLSELHAAGAQIIQVDEPIFASLTKEEVQQAKEIYEAIRKEVPNATLLLQTYFDSVEENYEEIITFPVSSIGLDFVHGKEGNLNAISKYGFPADKTLAVGCIDGRNIWRADLDEVLTLFTTLQKQVQTKDLIVQPSCSLLHTPIDKTEETHLSTELFDALAFANQKLEELVLIHSALTQGTESISNELETYRNVHHTIRSSAARNREDVKAARTALKEEDFSRPLPFEKRYELQQVALKLPLLPTTTIGSFPQTTEVRQTRKEWRNGIISNEQYEQFIEKETEKWIRYQEEIGLDVLVHGEFERTDMVEYFGERLAGFSFTKNGWVQSYGSRCVKPPVIYGDVAFINGMTIKETVYAQSLTEKVVKGMLTGPVTILNWSFVRNDIPRKEVSYQIALALRHEIELLESSGIRVIQVDEPALREGMPLKEKDWDAYITWAVQSFLLATSSVANETQIHTHMCYSNFEDIVDAIRALDADVISIETSRSHGEFIDTLKHTTYEKGIGLGVYDIHSPRVPSKDEMYKIVEQSLQVCDPKYFWINPDCGLKTRRTEEVIPALEHMVQAAKDARSLLKTNA,not soluble
2,MKRLMFIGPSQCGKTSLTQSLRGEALHYKKTQAIEWSPMAIDTPGEYLENRCLYSALLTSACEADVIALVLNADAQWSPFSPGFTAPMNRPTIGLVTKADLAEPQRISLVAEWLTQAGAQQIFITSALNNSGLDAVLDFLNSKEPLCLTKLEHHHHHH,soluble
3,MRAPEESLREVLARFPQVQAAFLFGSRAEGRARADSDWDLALLLSPEEPDPTLEVLGALVEAGLERVDLVLLHRAPPLLAFLAVKGKPVFLREGFDLGSYVSRVAREWWDTEPLLRVQREALTLKRRWLDPS,soluble
4,MTTVIVANDLVGFGKVALTSSLLPIMSACQTEVLPLPTVLLSSHTGEFDNIYVRYLTVDMQGFCGQWKRLDFRVDGLVGGYFKSEEELGLVSQCLTKKRFLFLLDPIMGDNGRLYQGFDRDYVEAMKDFCQQADVIIPNLTEAALLTGSPYLEEGSYDMTTIENLLRNLSRLGPRKVILTGISFETEKIGLAYFDKETNQVIYRMRKRYQSHFYGSGDLLTAILSAGYFHNLDFLKVCDLALDFLNKVLLFTLSSGRPLKYGLCYEPLYRLFI,soluble
5,MAGDPMRVEVGQIVNTHGIKGEIKVKSNSDFTDVRFQPGQVLTVVHNNNDLEYTVKSHRVHKGLHMLTFEGINNINDIEHLKGSSIYQERDHEDIVLEENEFYYSDIIGCTVFDDQETPIGRVINIFETGANDVWVIKGSKEYLIPYIADVVKEVDVENKKIIITPMEGLLDLEHHHHHH,soluble
6,MVLLLRYRSLTINLTPLIPKSQKFHTLQSFRNPNFISIPKISASTNNPTTTTNRSISDATKFAKSVLFIPPGVEIEELTDDMVLPGSNIVIGPFAGHSQIKEVEFVKSSARARDCPKDDRPEIAILGRSNVGKSSLINCLVRKKEVALTSKKPGKTQLINHFLVNKSWYIVDLPGYGFAKVSDAAKTDWSAFTKGYFLNRDSLVCVLLLIDASVPPQKIDLDCANWLGRNNVPMTFVFTKCDKMKATKGKRPDENIKAFQQIIRENFKVHPPWILTSSVSGLGRDELLLHMSQLRNYWDQ,not soluble
7,MSLAESRLTKLGQELAADKEFSSLERFADLVEKLQASLEIDATTLAAILLKRQQGKRPLFYVGADPMIEAMEREKSRRRERRDDRRDGDRPARREFGGRDQENHDWDTYQLQVGRDQGVQVKDIVGALANELGLTKGSIGAIKLAQGHTFVQLPKAMSNDVSSKLRKLRIRQKEVGAVVCDFDDFRESRGGARREGGPRREGGRRPEGNREGGFRGGREGGREGGRGRGGEGRPFREGERRFERNRSGESSGSYRGERGHSRRREEAEGHHHHHH,not soluble
8,MEIKQTIAKNLNRVKNELGLKNQDLAEVMGVTRQTIAKYLKGEQIPDSAKLFLLSRRLNIPMKDLIVSSDDQREPMSSFMFRADNPKENFRLIDQNQVNRIMDDYYELLASFGEASVAYLPPTYKLKLVDHELTEEHKTIIRQAAEQTRKMFGLDHVIPSDIYAVLEHHGIHVIALKTIDKKIDGLSAYSEEKGAFIFLNDHDEIPEERKRFSVIHELGHLIFHREEYRSDLSSLTYSSARREINEKVATLFASYFLIPREQLREYAYYFKRYVTIETIMELKRQFFVSAEAFMRALLDEQYISGRTYGFLRKTLREQGYKEQEPAPIDYIPKNRKLTYFVKQAYFEGSITINKVCEILGCDLRTAREMIKGWYKEHGCSENTGAL,not soluble
9,MGGKMEKITCVGHTALDYIFNVEKFPEPNTSIQIPSARKYYGGAAANTAVGIKKLGVNSELLSCVGYDFKNSGYERYLKNLDINISKLYYSEEEETPKAWIFTDKDNNQITFFLWGAAKHYKELNPPNFNTEIVHIATGDPEFNLKCAKKAYGNNLVSFDPGQDLPQYSKEMLLEIIEHTNFLFMNKHEFERASNLLNFEIDDYLERVDALIVTKGSKGSVIYTKDKKIEIPCIKAGKVIDPTGAGDSYRAGFLSAYVKGYDLEKCGLIGAATASFVVEAKGCQTNLPTWDKVVERLEKHRI,soluble
10,MGSDKIHHHHHHMRSIVQNKVEECLEILKWDKTKWIDFWRELRRKFGPIVPNYERKLELNDEKIEKILREIERRELDRFKWDWLDVSRNKKIECAESLSEREDFLDLKREDFSVFLMSLLGLSDWVVVDGEKEKIVVMDVFSLWRKGLLRELSLATLHAVIEFRKGKEIGNYGGKKEYFDSLLKEIEKILKRGKEALGDLCEFLRNHVSYYDWVGFYFVEDGKLKLGPFVGEPTEHVEIPFGVGICGQAAEREETFVVQDVSKETNYLSCSPKTKAEIVVPIFKDGKIIGELDIDSYSPSPFSEEDRAFLEKVCELVSKVV,not soluble
11,MGSDKIHHHHHHMAKVVISGYYGFDNLGDEAVLFSILKTLRELQIGIRIEVLSNNPSQTAEIYRVTAANRWKLGEVYHALKDSDMLISGGGSLLQDVTGWKSLVYYLGVIWLARFLGKPVFFYAQGIGPVNTPLGRLLMRWIVNKVNYITVRDESSRQDLAEMKISRPPVEVTADPVLGLEEKYVDKKIGQAILQEVGLDLSIERKMVGISVREWQGLGEYKEVVAELCDKLCRVGYQVVFLPMHSPDDLETSREVAAMMEQPAVVLEGHYSVVEMASLIANMDLLIGMRLHALILAAVMHVPPVAISYDPKIDRFMGLLGKTAATPVDRPQFAELWQAVEEIIYEPWQVREELMQQVEPLRQRAQASAVLGLKVLEKSLHNGPAAKYL,not soluble
12,MVGLSTGSWVKVLTSMPNLESITVVELNPAYVQLASSYPAMADLLKDNRVNIITDDGRRWLNKNPDQKFDLILMNTTFHWRNYATNLLSQQFLTVTKQHLTDNGFIYFNTTDALDAYKTSQAVFPHVYAYENMSLASLKPIAVPTTPEVHRALANLKWHDGRHIFNSPAEIAEGTARIVNTPLIPYKDIDFSPLKRPAKIITDTNMITEYKYGRLNTVINK,not soluble
13,VHNAGRMVVMKSRPLGEAEAVLDPSSATVDDFSISRGGDTIAYVKMGPTSPPDIYIYRDDNEYRLTDHNAWFAESRSLAEPVRLQVQSPLGGSIDAWILLPPDAGECSGCLPWILYIHGGPKTSYGYAFIHEFQMLASQGFAVIYSNPRGSDGYSEEFADLRGRYGVDDYSELMKVVDEALSDFPQLDPQRGGVTGGSYGGYMTNVIVTKTRRFKAAVTQRSCSNWISFYGESDIGWYFAPELISAQEPWRDLEKYVDFSPLFSVENIETPLLIIHSTEDFRCPLSGAIQLFTALKLKGVETRLLVFPGENHNLSRSGTPKRRVARLRAIASWFKEHLG,not soluble
14,MGSDKIHHHHHHKQTVSSESTEELDDASKVINYYHMSLAVLRHVANAKDINAVLGYMEQTGKVPEVDPIAPPEIAARDTAELLDPGDYFNPEVRQNLKQNYAGLFNVRTQFYDNFNKFLAYKKSKDTAKTAQLLDENYKLSVELSEYKQVIFDILSPLTEQAESELLADEPLKDQIMAMRKMSGTVQSIMNLYSRKHAMDGVRIDLKMAELEKELKAAEKIPAVTGYDEELKNFQSFLSTVKSFMNDMQKARSKGAYSDKEYQAMSEAYEYGLSVI,not soluble
15,MAHHHHHHMKDVDTARVLSELVNALQRVTAQPAWNTVQEPKAITFRLEDLFSTPNSVLASAATEGDSPEHGGNASEMNSPDMAAASFVNSGVGDGLGETATPLAPLREMSDHFSSNKKYAEEGLQDVFTMLQRLIDGTYSTAGCAALACMGQEIDKMITLMRPVALIDMRAAVYMNSLCSNIAAAKESRMQLNAPLVWDFVTNTVQTYITDHPVLYTALVAISNLSYLKDLKLTREDCGVLSRLIYPVYTEVHIVEVWAAMICNLTAHHPETVQVFLELGVVEVLERLVLYFGEEGRTVIRCLQCLSNLSMGFITGHSPALAE,not soluble
16,LRSNIDLFYTPGEILYGKRETQQMPEVGQRLRVGGMVMPGSVQRDPNSLKVTFTIYDAEGSVDVSYEGILPDLFREGQGVVVQGELEKGNHILAKEVLAKHDENYTPPEVEKAMEANHRRPASVYKDPASHHHHHH,soluble
17,MGHHHHHHSHMRLTLLCCTWREERMGEEGSELPVCASCGQRIYDGQYLQALNADWHADCFRCCDCSASLSHQYYEKDGQLFCKKDYWARYGESCHGCSEQITKGLVMVAGELKYHPECFICLTCGTFIGDGDTYTLVEHSKLYCGHCYYQTVVTPVIEQILPDSPGSHLPHTVTLVSIPASSHGKRGLSVSIDPPHGPPGCGTEHSHTVRVQGVDPGCMSPDVKNSIHVGDRILEINGTPIRNVPLDEIDLLIQETSRLLQLTLEHDPHDTLGHGLGPETSPLSSPAYTPSGEAGSSARQKPVLRSCSIDRSPGAGSLGSPASQRKDLGRSESLRVVCRPHRIFRPSDLIHGEVLGKGCFGQAIKVTHRETGEVMVMKELIRFDEETQRTFLKEVKVMRCLEHPNVLKFIGVLYKDKRLNFITEYIKGGTLRGIIKSMDSQYPWSQRVSFAKDIASGMAYLHSMNIIHRDLNSHNCLVRENKNVVVADFGLARLMVDEKTQPEGLRSL,soluble
18,MGSDKIHHHHHHMNVAERKKQTVVSSGISGLDEILRGGLPASNLYIVQGAPGSGKTTAALQFLRAGVALGEPCIYVSLSQTRAELEAIALSHGWTLDGIRVEELSASDSINRAADQTIFQTTELRLDETRKAIESAIEEHKPSRLVYDSLLEIRLITADSPRFRRELIAFKAFLAQRNIVALLLDTQTSETDRTGEEVDGIAHGVIRLDKSLEEYGGVRRRIEVSKMRGVPVADGYHDMAIREGEGVVVFPRIVPGAAARTVKPQLIKSGVDTLDEMFGGGQESGTTTLVIGQAGTGKSTMASLYATAALKRGESVGLFLFEERIETFFRRSEGLGMALRQFHEDGQLILRDFNPNEISPGEFGQIVQQSVNSEKVKVVVIDSFTGYLNSLPHREKAVRDIQSLLKYLARAGVLTILIVAQHGLLGQGVGIDVDVSFLGDTVLLLRIAEHEGRLRRSITVVKKRHGPHDLDVRELFIQSSGVSVIAYNPLPEV,not soluble
19,MGSDKIHHHHHHMPKKSFAQDCLYTAIMRLMREKDVDDITVKELVLKAGVARSTFYRYYTQPMDVLRDYLRPFNHGNAHLDDKDDKKVYLRRFYQYYTGHSELIYTLVQANKTEFLRETISCHILEVFSPMMTNKGVSPFLQKASVGLCVETLILWIVNDRKEKIEEMTDTVHNMVAVVERVS,not soluble
